Experimental findings from publication PMC11857070 are described below.

In this assay the target is Lectin-like protein 1 (Llp1), residues 23-241, without the signal peptide (Ustilago maydis). As to the kind of experiment: SEC-MALS; Superdex 200 Increase 10/300, HEPES buffer, pH 7.5. (In gel filtration, larger molecules generally elute earlier.)

One may read the stoichiometry N as the number of molecules, sites or subunits per partner or assembly.

Take “Lectin-like protein 1 (Llp1), residues 23-241, without the signal peptide (from UniProt A0A0D1E6R1 23-241) (domain or fragment)”: the stoichiometry N is 4.
